In the assay the target is T1, H-2 D^b MHC class I molecule (mouse, UniProt P01887 21-119; P01899 25-362, limits assumed).
T1 construct: whole, on cells
T1 sequence (MHC heavy, looked up): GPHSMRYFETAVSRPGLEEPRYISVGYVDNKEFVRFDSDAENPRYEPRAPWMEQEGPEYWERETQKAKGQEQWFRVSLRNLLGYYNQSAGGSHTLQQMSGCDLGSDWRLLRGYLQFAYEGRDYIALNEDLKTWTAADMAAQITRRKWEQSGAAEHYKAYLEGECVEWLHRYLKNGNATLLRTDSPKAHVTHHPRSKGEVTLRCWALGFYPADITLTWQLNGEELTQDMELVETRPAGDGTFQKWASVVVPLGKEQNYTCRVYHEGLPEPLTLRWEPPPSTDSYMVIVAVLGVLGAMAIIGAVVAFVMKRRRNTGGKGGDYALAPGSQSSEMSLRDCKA
T1 sequence (b2m, looked up): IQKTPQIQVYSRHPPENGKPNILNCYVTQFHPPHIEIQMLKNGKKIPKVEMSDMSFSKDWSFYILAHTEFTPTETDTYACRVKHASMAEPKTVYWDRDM
The experiment in a line: synthetic peptide pulsed on L cells expressing H-2 D^b, read by T cell hybridoma activation.

B1: SPAS-1 peptide STHVNHLHC (peptide)
peptide: STHVNHLHC
notes: Encoded by nucleotides 730 to 756 of the SPAS-1 (T) cDNA from TRAMP-C2 tumor cells
For B1, the binding result was “binds”.

These data come from patent US20070202121A1 (University of California, published 2007).
